Source: PMC4888889, “Role of VicRKX and GlnR in pH-Dependent Regulation of the Streptococcus salivarius 57.I Urease Operon”

Biological target: MalE (MBP) (UniProt P0AEX9 27-396)
Test: EMSA; EMSA: 50 mM Tris-HCl pH 7.4, 50 mM KCl, 2 mM MgCl2, 100 ng poly(dI-dC), 0.5 ug BSA, 0.01 pmol probe, 4 C 30 min; DAPA: 10 mM Tris-HCl pH 7.6, 60 mM KCl, 5% glyc

B1: VicR box probe (dsDNA)
DNA 1: CTAATATGTAAATGTTGCAAAATTTCTGAA
DNA 2: TTCAGAAATTTTGCAACATTTACATATTAG
B1: no binding.
